From the supplement of paper PMC7877785
± gives the uncertainty stated by the source.

Assay: self-splicing fitness, log relative to wild type (ln ratio); higher = more splicing; Tetrahymena group I intron in knt gene, E. coli kanamycin selection, DiMSum; sequences stand for … in CUCUCU…GGAGGGAAAAGUUAUCAGGCAUGCACCUGGUAGCUAGUCUUUAAACCAAUAGAUUGCAUCGGUUUAAAAGGCAAGACCGUCAAAUUGCGGGAAAGGGGUCAACAGCCGUUCAGUACCAAGUCUCAGGGGAAACUUUGAGAUGGCCUUGCAAAGGGUAUGGUAAUAAGCUGACGGACAUGGUCCUAACCACGCAGCCAAGUCCUAAGUCAACAGAUCUUCUGUUGAUAUGGAUGCAGUUCACAGACUAAAUGUCGGUCGGGGAAGAUGUAUUCUUCUCAUAAGAUAUAGUCGGACCUCUCCUUAAUGGGAGCUAGCGGAUGAAGUGAUGCAACACUGGAGCCGCUGGGAACUAAUUUGUAUGCGAAAGUAUAUUGAUUAGUUUUGGAGUACUCGUGGUCG
Procedure, shortened: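 A randomised library covering all eight P1ex-region intron nucleotides was built with the intron in the knt kanamycin-resistance gene on pET-22b(+) and held in E. coli BL21(DE3). Cells were grown overnight at 37°C or 30°C on LB agar, with or without 25 μg/mL kanamycin, plus 100 μg/mL carbenicillin, 50 μM IPTG and 0.2% rhamnose, and pooled colonies were amplicon-sequenced on an Illumina HiSeq 2500. DiMSum fitness is the error-weighted combination of wild-type-normalised replicate fold changes, kanamycin versus none.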

Sequence	self-splicing fitness (ln) (30 °C)	self-splicing fitness (ln) (37 °C)
GUCUAGCAAUAUUACGAUAU	-0.897 ± 0.12	-0.0984 ± 0.12
UUGUAGCAAUAUUACGCGUG	-0.196 ± 0.079	-0.498 ± 0.1
AGGGAGCAAUAUUACGCCCG	-3.31 ± 0.5	-0.737 ± 0.49
UACCAGCAAUAUUACGACUA	-0.413 ± 0.078	0.638 ± 0.098
ACAGAGCAAUAUUACGUAAG	-2.36 ± 0.11	-1.73 ± 0.14
GCGGAGCAAUAUUACGCAAC	-2.35 ± 0.48	
UCGUAGCAAUAUUACGAUUU	-3.1 ± 0.25	-2.4 ± 0.24
GGACAGCAAUAUUACGUUAU	-0.282 ± 0.046	0.102 ± 0.066
CAGUAGCAAUAUUACGCGGA	-2.93 ± 0.24	-1.64 ± 0.15
UGGCAGCAAUAUUACGUUUA	-0.478 ± 0.084	0.426 ± 0.096
UCGAAGCAAUAUUACGACCU	-1.51 ± 0.16	-1.1 ± 0.18
ACAUAGCAAUAUUACGUGGA	-3.3 ± 0.23	-2.37 ± 0.14
UGGAAGCAAUAUUACGCAUA	-1.68 ± 0.17	-0.329 ± 0.14
CCCCAGCAAUAUUACGCUUG	-3.52 ± 0.17	-3.06 ± 0.2
AGAGAGCAAUAUUACGCUAA		-0.209 ± 0.21
UCCGAGCAAUAUUACGAGGA	-3.04 ± 0.25	-2.5 ± 0.29
UCAUAGCAAUAUUACGAGGG	-2.24 ± 0.21	-1.83 ± 0.29
GAUCAGCAAUAUUACGCUCG	0.0547 ± 0.089	-0.0564 ± 0.12
GGGCAGCAAUAUUACGUAAA	-0.819 ± 0.09	-0.375 ± 0.11
CAGUAGCAAUAUUACGAAAG	-0.623 ± 0.099	-0.726 ± 0.14

Sequence	self-splicing fitness (ln) (30 °C)	self-splicing fitness (ln) (37 °C)
CGUAAGCAAUAUUACGCAUU	-3.95 ± 0.28	-2.68 ± 0.18
CAGCAGCAAUAUUACGAGUA	-3.05 ± 0.19	-1.77 ± 0.18
AUCGAGCAAUAUUACGCCUG	-3.45 ± 0.36	-1.78 ± 0.22
AGCGAGCAAUAUUACGCAAG	-3.18 ± 0.4	-2.43 ± 0.45
GAUCAGCAAUAUUACGAUAA	0.273 ± 0.069	0.106 ± 0.076
ACUUAGCAAUAUUACGUCAU	-3.1 ± 0.2	-1.56 ± 0.17
AGGAAGCAAUAUUACGCCGG	-0.87 ± 0.17	-0.612 ± 0.23
CUGCAGCAAUAUUACGUUUG	-2.61 ± 0.094	-0.958 ± 0.098
UGACAGCAAUAUUACGCACU	0.279 ± 0.051	-0.101 ± 0.059
GCGUAGCAAUAUUACGGCAG	-3.83 ± 0.28	-2.13 ± 0.39
CGUUAGCAAUAUUACGCAGC	-2.48 ± 0.25	-3.07 ± 0.43
CAGUAGCAAUAUUACGCUGA	-2.07 ± 0.24	-1.95 ± 0.3
UCGGAGCAAUAUUACGCGGU	-3.14 ± 0.23	-2.94 ± 0.43
AGUGAGCAAUAUUACGCGGG		-2.1 ± 0.37
GUCCAGCAAUAUUACGCCCC	-1.09 ± 0.18	-0.607 ± 0.18
CAUCAGCAAUAUUACGGAAC	-2.6 ± 0.19	-2.54 ± 0.36
AACCAGCAAUAUUACGCCCA	-0.618 ± 0.22	-0.865 ± 0.18
UUGCAGCAAUAUUACGAUUU	-2.64 ± 0.14	-1.22 ± 0.13
CGCCAGCAAUAUUACGUCGC	-3.23 ± 0.16	-2.11 ± 0.2
